Measured values as given in US12247062 (1GLOBE BIOMEDICAL, dated 2025).

Molecular target: T1, rituximab (RITUXAN), coated on CD20+ Daudi cells
T1 construct: also called MABTHERA; ZYTUX
Assay: flow cytometry titrations compared: rituximab-coated Daudi cells against Jurkat cells (CD3)
Source text: Figure 12: FIG. 12 schematically depicts an assay using Daudi cells to test the ability of an Adapter-like ADCC Enhancer of the present invention to bind CD20+ target cells coated with RITUXAN (rituximab). Figure 13: FIG. 13 illustrates FACS data showing, in an assay according to FIG. 12, the binding between Daudi cells and the ADCC Enhancer of the invention before purification ("Sample Load") and after purification ("Purified Protein"). Figure 14: FIG. 14 illustrates FACS data showing titration of binding between Daudi cells and the ADCC Enhancer of the invention at various concentrations. The volume of the Enhancer in microliters are indicated in the upper right corner of the top six diagrams as: 50, 25, 12.5, 6.25, 3.13 and 1.56 microliters. The bottom diagram summarizes the data. CD20+ Daudi cells were coated with RITUXAN (rituximab) (anti-CD20 antibody) and excess RITUXAN (rituximab) was removed by washing the cells with PBS. RITUXAN (rituximab)-coated cells were incubated with various amounts of the Enhancer, and excess Enhancer was removed by washing the cells in PBS. Bound Enhancer proteins were detected using fluorescent anti-human CD64 antibody.
With tagged protein, binding affinity can also be detected using a fluorescently tagged anti-tag antibody. This approach can also be used to detect binding of the CD64 domain by rituximab-coated CD20⁺ Daudi cells (see FIG. 12). […]

B1: CD64-dhOKT3 fusion protein (Adapter-like ADCC Enhancer) (other)
chain: QVDTTKAVITLQPPWVSVFQEETVTLHCEVLHLPGSSSTQWFLNGTATQTSTPSYRITSASVNDSGEYRCQRGLSGRSDPIQLEIHRGWLLLQVSSRVFTEGEPLALRCHAWKDKLVYNVLYYRNGKAFKFFHWNSNLTILKTNISHNGTYHCSGMGKHRYTSAGISVTVKELFPAPVLNASVTSPLLEGNLVTLSCETKLLLQRPGLQLYFSFYMGSKTLRGRNTSSEYQILTARREDSGLYWCEAATEDGNVLKRSPELELQVLSSGGGGSQVQLVQSGGGVVQPGRSLRLSCKSSGYTFTRYTMHWVRQAPGKGLEWIGYINPSRGYTNYNQKVKDRFTISRDNSKNTAFLQMDSLRPEDTGVYFCARYYDDHYCLDYWGQGTPVTVSSVEGGSGGSGGSGGSGGVDDIQMTQSPSSLSASVGDRVTITCRASSSVSYMNWYQQTPGKAPKRWIYDTSKVASGVPSRFSGSGSGTDYTFTISSLQPEDIATYYCQQWSSNPLTFGQGTKLQIT
notes: Expressed in Expi293 cells and used as culture supernatant or after IgG Sepharose purification; Untagged; also called Soluble Universal ADCC Enhancer Protein; SUAEP
fold stronger Fc- or antibody-binding than CD3-binding: ~30 fold
